T1: human DLL3 protein (extracellular segment, His tag) (human, UniProt Q9NYJ7 27-492)
T1 construct: also called human DLL3-his protein; DLL3 antigen; not shown: His tag
T1 sequence: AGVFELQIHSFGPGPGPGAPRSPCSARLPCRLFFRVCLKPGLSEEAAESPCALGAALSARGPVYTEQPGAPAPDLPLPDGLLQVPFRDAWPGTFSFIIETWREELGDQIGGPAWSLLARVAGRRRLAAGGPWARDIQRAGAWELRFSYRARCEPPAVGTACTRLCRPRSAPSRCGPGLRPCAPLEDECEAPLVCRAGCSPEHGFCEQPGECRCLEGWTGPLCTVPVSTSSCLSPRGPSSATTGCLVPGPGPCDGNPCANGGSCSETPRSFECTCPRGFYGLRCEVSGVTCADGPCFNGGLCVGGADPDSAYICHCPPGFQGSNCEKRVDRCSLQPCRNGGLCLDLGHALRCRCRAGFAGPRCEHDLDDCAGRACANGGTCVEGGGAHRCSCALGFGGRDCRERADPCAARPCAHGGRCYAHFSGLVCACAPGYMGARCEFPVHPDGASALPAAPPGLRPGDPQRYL

T2: human DLL3-his protein (human, UniProt Q9NYJ7 27-492)
T2 construct: also called human DLL3 protein; DLL3 antigen protein; not shown: His tag
T2 sequence: T1 sequence

T3: human DLL1 protein (human, UniProt O00548 18-540, limits assumed)
T3 construct: bought protein; construct and tag not described; also called hDLL1
T3 sequence (looked up): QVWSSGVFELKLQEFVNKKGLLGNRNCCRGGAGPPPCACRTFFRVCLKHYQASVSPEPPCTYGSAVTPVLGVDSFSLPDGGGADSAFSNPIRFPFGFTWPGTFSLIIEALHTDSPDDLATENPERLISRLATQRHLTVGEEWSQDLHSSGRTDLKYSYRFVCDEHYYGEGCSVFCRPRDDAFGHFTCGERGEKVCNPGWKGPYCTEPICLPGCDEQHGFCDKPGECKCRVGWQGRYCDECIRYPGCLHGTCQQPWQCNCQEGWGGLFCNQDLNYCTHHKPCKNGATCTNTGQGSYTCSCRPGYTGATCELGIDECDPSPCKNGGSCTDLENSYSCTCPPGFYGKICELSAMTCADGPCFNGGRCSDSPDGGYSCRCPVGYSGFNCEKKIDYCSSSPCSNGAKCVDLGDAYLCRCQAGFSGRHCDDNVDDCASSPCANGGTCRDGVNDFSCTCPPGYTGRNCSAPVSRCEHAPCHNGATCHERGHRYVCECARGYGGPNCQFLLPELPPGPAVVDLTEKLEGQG

T4: monkey DLL3-his protein (cynomolgus monkey, UniProt Q9NYJ7 27-490 (human entry))
T4 construct: a bought cynomolgus DLL3-His (Acro DL3-C52H3) is also named; also called monkey DLL3 protein; cynomolgus monkey DLL3-His; not shown: His tag
T4 chain: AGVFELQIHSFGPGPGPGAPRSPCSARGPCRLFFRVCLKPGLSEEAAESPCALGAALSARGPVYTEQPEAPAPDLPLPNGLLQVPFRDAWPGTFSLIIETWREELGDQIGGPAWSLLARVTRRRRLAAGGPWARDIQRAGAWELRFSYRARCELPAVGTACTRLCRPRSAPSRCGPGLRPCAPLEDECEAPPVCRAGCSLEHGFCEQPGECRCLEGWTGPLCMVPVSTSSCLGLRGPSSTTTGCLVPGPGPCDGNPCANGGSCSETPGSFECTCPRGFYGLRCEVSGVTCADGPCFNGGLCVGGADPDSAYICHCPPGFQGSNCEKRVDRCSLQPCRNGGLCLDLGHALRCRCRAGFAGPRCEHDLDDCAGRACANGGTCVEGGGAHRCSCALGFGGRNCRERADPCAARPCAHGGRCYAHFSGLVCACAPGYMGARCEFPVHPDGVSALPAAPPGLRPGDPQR

T5: monkey DLL3 on CHO K1-cyno DLL3 cells (cynomolgus monkey)
T5 construct: also called monkey DLL3 recombinant cell line
T5 chain: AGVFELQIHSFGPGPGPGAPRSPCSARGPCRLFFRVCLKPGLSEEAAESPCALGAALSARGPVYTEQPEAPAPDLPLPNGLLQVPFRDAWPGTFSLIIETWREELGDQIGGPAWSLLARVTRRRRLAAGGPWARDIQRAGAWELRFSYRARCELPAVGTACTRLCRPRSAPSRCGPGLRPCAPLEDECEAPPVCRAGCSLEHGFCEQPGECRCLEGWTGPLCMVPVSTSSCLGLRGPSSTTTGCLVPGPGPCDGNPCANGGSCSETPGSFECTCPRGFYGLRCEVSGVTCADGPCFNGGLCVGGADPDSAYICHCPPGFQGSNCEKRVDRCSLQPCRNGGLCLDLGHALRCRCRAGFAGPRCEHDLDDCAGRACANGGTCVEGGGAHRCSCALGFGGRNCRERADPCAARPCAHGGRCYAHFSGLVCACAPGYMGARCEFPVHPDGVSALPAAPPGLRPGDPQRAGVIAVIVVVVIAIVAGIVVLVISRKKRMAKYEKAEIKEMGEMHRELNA

B1: BI3 (antibody, human IgG1, kappa, V domains shown)
VH: QVQLVQSGAEVKKPGASVKVSCKASGYTFTSYYVHWVRQAPGQGLEWMVIINPGGGTTSYAQKFLGRVTMTRDTSTNTVYMELKSLRSEDTAVYYCARGEAVTGNYFYYGMDVWGQGTTVTVSS
VL: DIQMTQSPSAMSASVGDRVTITCRASQGISNYLVWFQQKPGKAPKRLIYAVSSLYSGVPSRFSGSGSGTEFTLTISSLQPEDFATYYCLQHDSYPYTFGQGTKLEIKR
notes: control antibody in complete IgG format, variable regions from WO2019234220A1
B2: mab008 scFv-hFc (Fc fusion)
scFv (part 1 of 2): DIVMTQSQKFMSTSVGDRVSITCKASQNVGTAVAWYQQKPGQSPKLLIFSASIRYTGVPDRFTGSGSGTDFTLTISNMQSEDLADYFCQQYSSSPYTFGGGTKLEIK
scFv (part 2 of 2): EVQLQQSGPVLVKPGASVKMSCKASGYTFTDYYMNWVKRSHGKSLEWIGIINPYNGGTSYNQKFRGKATLTVDKSSNTAYMELNSLTSEDSAVYYCSRYDYDYDVEGAMDYWGQGTSVTVSS
notes: human-murine chimeric scFv-hFc, VL-linker-VH-human IgG1 Fc; not shown: linker; Fc fragment of human IgG1
B3: mab014 scFv-hFc (Fc fusion)
scFv (part 1 of 2): DIQMTQSSSSFSVSLGDRVTITCKASEDIYNRLAWYQQKPGNTPRLLISGATSLETGVPSRFSGSGSGKDFTLSITSLQTEDVATYYCQQYWSLPWTFGGGTKLEIK
scFv (part 2 of 2): EVQLHQSGPELVKPGTSVKISCKASGYTFTDYYMNWVKQSHGKSLEWIGDINPNHGDTGYNQKFTGKATLTVDKSSSTAYMELRSLTSEDSAVYYCARNFFYYGTTYGWYFDVWGTGTTVTVSS
notes: as for B2
B4: mab006 scFv-hFc (Fc fusion)
scFv (part 1 of 2): DVQITQSPSYLAASPGETITINCRATKSISKYLAWYQEKPGKTNKLLIFSGSTLQSGIPSRFRGSGSGTDFTLTISSLEPEDFAMYYCQQHHEYPYTFGGGTKLEIK
scFv (part 2 of 2): QVQLQQPGAELVRPGTSVKLSCKASGYTFTSYWMHWVRQRPGQGLEWIGVIDPSDSLANYNQEFKGKATLTVDTSSSTAYMQLSSLTSEDSAVYYCARDSTVVAPMDYWGQGTSVTVSS
notes: as for B2
B5: mab007 scFv-hFc (Fc fusion)
scFv (part 1 of 2): B4 scFv (part 1 of 2) with T26S, K27T, K39R, F49Y, E93V
scFv (part 2 of 2): B4 scFv (part 2 of 2) with R38K
notes: as for B2
B6: mab012 scFv-hFc (Fc fusion)
scFv (part 1 of 2): DVLMTQTPLSLPVSLGDQASISCRSSQSIVHSDGNTYLEWYLQKPGQSPKLLIYKVSNRFSGVPDRFSGSGSGTDFTLKISRVEAEDLGFYYCFQGSHVPFTFGSGTKLEIK
scFv (part 2 of 2): QVQLQQSGPELVKPGASVKISCKASGYTFTDYYIHWVKQRPGQGLEWIGWTLPGSGSPYYNEKFKGKATLTVDKSSSTAYMLLSSLTSEDSAVYFCARWHYYYGSSYHFDYWGQGTTLTVSS
notes: as for B2
B7: mab005 scFv-hFc (Fc fusion)
scFv (part 1 of 2): DIVLTQSPATLSVTPGDSVSLSCRASQSVSNDLHWYQQKSHESPRLLIKYASQSISGIPSRFSGSGSGTDFTLTINSVETEDFGMYFCQQSNNWPYTFGGGTKLEMK
scFv (part 2 of 2): QVQLQQSGAELMKPGASVTLSCKATGYTLPGYWIEWVKQRPGHGLEWIGEILPGSSSANYNEKFKGKATFTADTSSNTAYMQLSSLTTEDSAIYYCASTYGTSLDYWGQGTTLTVSS
notes: as for B2
B8: Hab015VL4VH6b-hFc (Fc fusion)
scFv (part 1 of 2): NIVLTQSPATLSLSPGERATLSCKASENVGTYVSWFQQKPGQSPRLLIYGASNRYTGIPARFSGSGSGTDFTLTISSLEPEDFAVYYCGQFYSFPSTFGGGTKVEIK
scFv (part 2 of 2): EVQLVESGGGLVKPGGSLRLSCAASGITFSNFWMNWVRQAPEKGLEWVGQIRLKSDQYATHYAESVKGRFTISREDSKNTVYLQMNSLKTEDTAVYYCTTGYYFDYWGQGTTVTVSS
notes: humanized mab015, VL-linker-VH-human IgG1 Fc; also called Hab015L4H6b; not shown: linker; human IgG1 Fc fragment
B9: SC16.56 (antibody, human IgG1, kappa, V domains shown)
VH: QVQLVQSGAEVKKPGASVKVSCKASGYTFTNYGMNWVRQAPGQGLEWMGWINTYTGEPTYADDFKGRVTMTTDTSTSTAYMELRSLRSDDTAVYYCARIGDSSPSDYWGQGTLVTVSS
VL: EIVMTQSPATLSVSPGERATLSCKASQSVSNDVVWYQQKPGQAPRLLIYYASNRYTGIPARFSGSGSGTEFTLTISSLQSEDFAVYYCQQDYTSPWTFGQGTKLEIKR
notes: expressed in the complete IgG format; variable regions from US20200138969A1; also called control antibody
B10: BI3 (antibody, human IgG1, kappa, V domains shown)
VH: B1 VH
VL: B1 VL
notes: expressed in the complete IgG format; variable regions from WO2019234220A1; also called control antibody

Data on ten molecules can be found in patent publication EP4786492A1 (Simcere Zaiming Pharmaceutical Co., Ltd., dated 2026).

Residue numbers refer to the chain shown, from its start.

T6 sequence (Q9NR61 27-524 limits assumed): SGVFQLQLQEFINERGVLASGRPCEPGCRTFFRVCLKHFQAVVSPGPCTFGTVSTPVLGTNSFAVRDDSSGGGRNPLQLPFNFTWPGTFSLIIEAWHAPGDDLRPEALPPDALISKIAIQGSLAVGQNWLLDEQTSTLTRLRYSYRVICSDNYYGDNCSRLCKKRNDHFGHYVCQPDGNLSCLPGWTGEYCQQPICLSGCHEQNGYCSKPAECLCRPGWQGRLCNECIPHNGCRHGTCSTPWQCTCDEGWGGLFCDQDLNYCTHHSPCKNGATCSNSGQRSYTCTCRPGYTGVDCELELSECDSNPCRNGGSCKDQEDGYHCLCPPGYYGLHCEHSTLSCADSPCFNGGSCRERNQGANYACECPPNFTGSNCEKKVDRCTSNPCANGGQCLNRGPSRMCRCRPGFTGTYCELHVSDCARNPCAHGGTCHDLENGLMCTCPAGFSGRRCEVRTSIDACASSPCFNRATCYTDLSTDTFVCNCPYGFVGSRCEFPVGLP

The first test deals with T1, human DLL3 protein (extracellular …). Put plainly: SPR (Biacore 8K), antibody captured on Protein A chip, DLL3 antigen in solution, 1:1 Langmuir fit. For orientation: Surface plasmon resonance follows binding to a sensor surface in real time, without labels.
As usually defined, the Kd is a measure of binding affinity in units of concentration. What is called koff is a measure of how fast the partners let go of each other. The term kon denotes a measure of how fast the partners come together. Molecule B1 yielded a Kd of 0.0497 nM, a koff of 4.7e-05 s⁻¹ and a kon of 945000 M⁻¹ s⁻¹.

The next test addresses T2, human DLL3-his protein. Put plainly: ELISA. On the technique in general: In an ELISA, binding on a coated surface is turned into a signal by an enzyme label.
Turning to B2, the binding result is reported as “binds”.

As to B3, the binding result is recorded as “binds”.

With B4, the binding result is reported as “binds”.

Turning to B5, the binding result was “binds”.

With B6, the binding result was “binds”.

Regarding B7, the binding result was “binds”.

A further test has as its target T6, human DLL4 protein (human, UniProt Q9NR61 27-524, limits assumed).
T6 construct: bought protein; construct and tag not described; also called hDLL4
Put plainly: ELISA, maximum over 0.1-100 nM.
For B2, the “Emax of OD450 nm binding value” is 0.08 OD450.

Take B3: the “Emax of OD450 nm binding value” worked out at 0.06 OD450.

For the molecule B4, the “Emax of OD450 nm binding value” was found to be 0.07 OD450.

B5: the “Emax of OD450 nm binding value” came out at 0.06 OD450.

Regarding B6, the “Emax of OD450 nm binding value” amounted to 0.08 OD450.

For B7, the “Emax of OD450 nm binding value” turned out to be 0.04 OD450.

Another test has as its target T3, human DLL1 protein. Put plainly: ELISA, maximum over 0.1-100 nM.
In the case of B2, the “Emax of OD450 nm binding value” was determined as 0.09 OD450.

On to B3, for which the “Emax of OD450 nm binding value” is 0.08 OD450.

Consider B4, for which the “Emax of OD450 nm binding value” is 0.08 OD450.

Consider B5, for which the “Emax of OD450 nm binding value” amounted to 0.07 OD450.

For the molecule B6, the “Emax of OD450 nm binding value” was determined as 0.08 OD450.

With B7, the “Emax of OD450 nm binding value” worked out at 0.05 OD450.

For another test, the target named is T2, human DLL3-his protein. Put plainly: SPR Biacore 8K, antibody captured on Protein A.
Turning to B8, the binding result is listed as “binds”.

The target in another test is T2, human DLL3-his protein. Kind of test: ELISA, coated DLL3-his.
For the molecule B9, the binding result is listed as “binds”.

In another test the target is T4, monkey DLL3-his protein. Kind of test: ELISA, coated DLL3-his.
For the molecule B10, the binding result is on record as “binds”.

Turning to B9, the binding result is on record as “binds”.

For a further test, the target named is T5, monkey DLL3 on CHO K1-cyno DLL3 cells. Put plainly: FACS, CHO K1-cyno DLL3 cells. For orientation: Flow cytometry measures light scatter and fluorescence of single cells or particles in a stream.
Consider B2, for which the binding result was “binds”.

For B3, the binding result is recorded as “binds”.

Consider B4, for which the binding result is “binds”.

B5: the binding result is recorded as “binds”.

B6: the binding result is “binds”.

Regarding B7, the binding result was “binds”.
